Residue numbers refer to the chain shown, from its start. Values belong to the binder of their own block, whether it stands above or below them.
Tests used:
FcγRIIb [1] = biological target: T1, FcγRIIb (human, UniProt P31994 43-217); assay: SPR (Biacore); parent = IL6R-B3/IL6R-L
T1 construct: extracellular domain; also called FcgRIIb; CD32B
T1 sequence (looked up): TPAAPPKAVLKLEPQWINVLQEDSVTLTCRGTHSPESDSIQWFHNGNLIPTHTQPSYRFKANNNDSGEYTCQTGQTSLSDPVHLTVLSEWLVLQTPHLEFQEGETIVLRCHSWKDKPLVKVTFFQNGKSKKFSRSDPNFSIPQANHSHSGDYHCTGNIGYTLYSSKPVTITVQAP

FcγRIIa type R [2] = biological target: T2, FcγRIIa type R (human, UniProt P12318 34-217); assay: SPR (Biacore); parent = IL6R-B3/IL6R-L
T2 chain: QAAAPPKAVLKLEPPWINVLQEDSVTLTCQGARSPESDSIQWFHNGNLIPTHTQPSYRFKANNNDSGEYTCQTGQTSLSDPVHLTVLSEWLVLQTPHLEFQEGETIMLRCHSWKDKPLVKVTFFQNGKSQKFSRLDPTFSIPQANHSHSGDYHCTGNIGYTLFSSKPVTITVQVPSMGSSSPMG

FcγRIIb [3] = biological target: T1, FcγRIIb; assay: SPR (Biacore), captured antibody, soluble FcγR
FcγRIIa type H = biological target: T3, FcγRIIa type H (human, UniProt P12318 34-217); assay: SPR (Biacore), captured antibody, soluble FcγR
T3 construct: extracellular domain; also called FcγRIIaH; FcgRIIaH
T3 sequence (looked up): T2 chain with R134H

FcγRIa = biological target: T4, FcγRIa (human, UniProt P12314 16-292); assay: SPR (Biacore), captured antibody, soluble FcγR
T4 construct: Whole entry named; also called FcgRIa; CD64A

FcγRIIa type R [4] = biological target: T2, FcγRIIa type R; assay: SPR (Biacore), captured antibody, soluble FcγR
[5] = biological target: T5, FcγRIa extracellular domain with C-terminal His tag (human, UniProt P12314 16-292); assay: SPR binding amount, relative to IL6R-BF648/IL6R-L
T5 construct: also called FcgRIa; not shown: His tag attached to the C terminus

[6] = biological target: T6, FcγRIIb extracellular domain with C-terminal His tag (human, UniProt P31994 43-217); assay: SPR binding amount, relative to IL6R-BF648/IL6R-L
T6 construct: extracellular domain; For crystallography it was expressed with kifunensine and trimmed with Endo F1; also called FcgRIIb; FcγRIIb extracellular region; not shown: His tag attached to the C terminus
T6 sequence (looked up): T1 sequence (looked up)

[7] = biological target: T7, FcγRIIa type H extracellular domain with C-terminal His tag (human, UniProt P12318 34-217); assay: SPR binding amount, relative to IL6R-BF648/IL6R-L
T7 construct: extracellular domain; also called FcγRIIaH; FcgRIIaH; not shown: His tag attached to the C terminus
T7 sequence (looked up): T2 chain with R134H

T5 sequence (P12314 16-292): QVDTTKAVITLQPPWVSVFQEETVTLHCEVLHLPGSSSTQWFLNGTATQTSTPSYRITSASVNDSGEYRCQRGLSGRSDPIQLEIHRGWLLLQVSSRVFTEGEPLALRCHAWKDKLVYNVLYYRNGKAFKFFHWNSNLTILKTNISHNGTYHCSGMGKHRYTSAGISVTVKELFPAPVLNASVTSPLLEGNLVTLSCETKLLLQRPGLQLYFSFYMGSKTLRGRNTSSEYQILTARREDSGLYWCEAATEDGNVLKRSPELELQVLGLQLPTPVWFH
T4 sequence (P12314 16-292): as above

KD(IIb) of the parent polypeptide/KD(IIb) of the altered polypeptide (FcγRIIb [1]): 1040 fold | KD(IIaR) of the parent polypeptide/KD(IIaR) of the altered polypeptide (FcγRIIa type R [2]): 13.9 fold | Kd (FcγRIIb [3]): 3 nM | Kd (FcγRIIa type H): 1300 nM | Kd (FcγRIa): 8.9 nM | Kd (FcγRIIa type R [4]): 79 nM
B1: IL6R-BP536/IL6R-L (antibody, human IgG1, kappa)
heavy: QVQLQESGPGLVKPSETLSLTCAVSGHSISHDHAWSWVRQPPGEGLEWIGFISYSGITNYNPSLQGRVTISRDNSKNTLYLQMNSLRAEDTAVYYCARSLARTTAMDYWGEGTLVTVSSASTKGPSVFPLAPSSKSTSGGTAALGCLVKDYFPEPVTVSWNSGALTSGVHTFPAVLQSSGLYSLSSVVTVPSSSLGTQTYICNVNHKPSNTKVDKKVEPKSCDKTHTCPPCPAPDLLGDDSVFLFPPKPKDTLMISRTPEVTCVVIDVSEEDGEVKFNWYVDGVEVHNAKTKPREEQDNSTYRVVSVLTVLHQDWLNGKEYKCKVSNKGLPRPIEKTISKAKGQPREPQVYTLPPSRDELTKNQVSLTCLVKGFYPSDIAVEWESNGQPENNYKTTPMVLDSDGSFFLYSKLTVDKSRWQQGNVFSCSVMHEALHNHYTQESLSLSP
light: not shown
notes: Alterations in EU numbering, introduced into IL6R-B3

KD(IIb) of the parent polypeptide/KD(IIb) of the altered polypeptide (FcγRIIb [1]): 587 fold | KD(IIaR) of the parent polypeptide/KD(IIaR) of the altered polypeptide (FcγRIIa type R [2]): 5.4 fold | Kd (FcγRIIb [3]): 5.3 nM | Kd (FcγRIIa type H): 3000 nM | Kd (FcγRIa): 55 nM | Kd (FcγRIIa type R [4]): 200 nM
B5: IL6R-BP538/IL6R-L (antibody, human IgG1, kappa)
heavy: B1 heavy with D235E, D298Y, G329A, M398P
light: not shown
notes: as for B1

KD(IIb) of the parent polypeptide/KD(IIb) of the altered polypeptide (FcγRIIb [1]): 406 fold | KD(IIaR) of the parent polypeptide/KD(IIaR) of the altered polypeptide (FcγRIIa type R [2]): 3.3 fold | Kd (FcγRIIb [3]): 7.6 nM | Kd (FcγRIIa type H): 5000 nM | Kd (FcγRIa): 25 nM | Kd (FcγRIIa type R [4]): 340 nM
B8: IL6R-BP550/IL6R-L (antibody, human IgG1, kappa)
heavy: B1 heavy with D235E, S269G, E274D, G329A, M398P
light: not shown
notes: as for B1

KD(IIb) of the parent polypeptide/KD(IIb) of the altered polypeptide (FcγRIIb [1]): 370 fold | KD(IIaR) of the parent polypeptide/KD(IIaR) of the altered polypeptide (FcγRIIa type R [2]): 3.7 fold | Kd (FcγRIIb [3]): 8.4 nM | Kd (FcγRIIa type H): 5800 nM | Kd (FcγRIa): 43 nM | Kd (FcγRIIa type R [4]): 300 nM
B9: IL6R-BP556/IL6R-L (antibody, human IgG1, kappa)
heavy: B1 heavy with D235E, S269G, G329A, M398P
light: not shown
notes: as for B1

KD(IIb) of the parent polypeptide/KD(IIb) of the altered polypeptide (FcγRIIb [1]): 369 fold | KD(IIaR) of the parent polypeptide/KD(IIaR) of the altered polypeptide (FcγRIIa type R [2]): 3.4 fold | Kd (FcγRIIb [3]): 8.4 nM | Kd (FcγRIIa type H): 5600 nM | Kd (FcγRIa): 64 nM | Kd (FcγRIIa type R [4]): 330 nM
B11: IL6R-BP539/IL6R-L (antibody, human IgG1, kappa)
heavy: B1 heavy with D235E, S269G, E274P, G329A, M398P
light: not shown
notes: as for B1

Continued, binder first:

B2: IL6R-BP103/IL6R-L (antibody, human IgG1, kappa)
heavy: B1 heavy with D235E, D239G, I266V, S269V, E270H, G273P, D298Y, G329A, R332A, M398P
light: not shown
notes: Alterations introduced into IL6R-B3
relative binding activity (IL6R-BF648/IL6R-L = 100) [5]: 56 | relative binding activity (IL6R-BF648/IL6R-L = 100) [6]: 107 | relative binding activity (IL6R-BF648/IL6R-L = 100) [7]: 69

B3: IL6R-2B169/IL6R-L (antibody, human IgG1, kappa)
heavy: B1 heavy with D235E, D239G, I266V, E270H, G273P, D298Y, V325I, G329A, R332A, M398P
light: not shown
notes: as for B2
relative binding activity (IL6R-BF648/IL6R-L = 100) [5]: 73 | relative binding activity (IL6R-BF648/IL6R-L = 100) [6]: 104 | relative binding activity (IL6R-BF648/IL6R-L = 100) [7]: 83

B4: IL6R-BP112/IL6R-L (antibody, human IgG1, kappa)
heavy: B1 heavy with D235E, D239G, I266V, E270H, D298Y, G329A, R332A, M398P
light: not shown
notes: as for B2
relative binding activity (IL6R-BF648/IL6R-L = 100) [5]: 119 | relative binding activity (IL6R-BF648/IL6R-L = 100) [6]: 157 | relative binding activity (IL6R-BF648/IL6R-L = 100) [7]: 113

B6: IL6R-BP102/IL6R-L (antibody, human IgG1, kappa)
heavy: B1 heavy with D235E, D239G, I266V, S269Q, E270H, G273P, D298Y, G329A, R332A, M398P
light: not shown
notes: as for B2
relative binding activity (IL6R-BF648/IL6R-L = 100) [5]: 104 | relative binding activity (IL6R-BF648/IL6R-L = 100) [6]: 106 | relative binding activity (IL6R-BF648/IL6R-L = 100) [7]: 66

B7: IL6R-2B172/IL6R-L (antibody, human IgG1, kappa)
heavy: B1 heavy with D235E, D239G, I266V, E270H, G273P, D298Y, V325M, G329A, R332A, M398P
light: not shown
notes: as for B2
relative binding activity (IL6R-BF648/IL6R-L = 100) [5]: 140 | relative binding activity (IL6R-BF648/IL6R-L = 100) [6]: 132 | relative binding activity (IL6R-BF648/IL6R-L = 100) [7]: 179

B10: IL6R-BP100/IL6R-L (antibody, human IgG1, kappa)
heavy: B1 heavy with D235E, D239G, I266V, S269A, E270H, G273P, D298Y, G329A, R332A, M398P
light: not shown
notes: as for B2
relative binding activity (IL6R-BF648/IL6R-L = 100) [5]: 121 | relative binding activity (IL6R-BF648/IL6R-L = 100) [6]: 110 | relative binding activity (IL6R-BF648/IL6R-L = 100) [7]: 128
